According to patent publication US20260125472A1 (HEFEI TG IMMUNOPHARMA, published 2026):

Legend:
CD3 on CD8 T cells = target: T1, CD3 on CD8 T cells (Homo sapiens (Human), UniProt P07766 23-207); experiment: flow cytometry, CD8 T cells in PBMCs, binding ratio % [panel A]
T1 construct: Native CD3 complex on CD8 T cells among PBMCs; also called T cells (PBMCs gated with anti-human CD8 antibody)
Experimental: PBMCs were diluted with PBS to 2×10⁶/mL and added to a 1.5 ml EP tube at a volume of 100 μL/tube, 10 μL/tube of goat serum was added thereto and incubated at 4° C. for 30 min for blocking. […] 1 mL of PBS was added to the EP tube, followed by centrifugation at 3500 rpm for 5 min at 4° C. The supernatant was discarded, and the cells were washed again with PBS. After centrifugation, the supernatant was discarded, and the cells were resuspended with 100 μl/tube PBS. 1 μl/tube Alexa-647-labeled goat anti-human secondary antibody (purchased from Jackson lab) and 0.5 μl/tube PerCP-Cy5.5-labeled anti-human CD8 antibody were added and incubated at 4° C. in the dark for 30 min. The cells were washed twice with PBS, and the supernatant was discarded after centrifugation. The cells were resuspended with […] of PBS and assayed using the flow cytometry.

CD3E&D protein [1] = target: T2, CD3E&D protein (UniProt P04234 22-105); experiment: ELISA, coated CD3E&D protein, OD450 [panel C]
T2 construct: Purchased from Acro; also called CD3 E&D antigens; CD3E&D antigen protein
T2 sequence (chain, as listed by the source limits assumed, chain 1 of 2): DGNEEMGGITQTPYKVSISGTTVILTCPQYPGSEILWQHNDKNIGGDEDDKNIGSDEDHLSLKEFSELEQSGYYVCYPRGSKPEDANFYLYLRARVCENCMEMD
T2 sequence (P04234 22-105 limits assumed, chain 2 of 2): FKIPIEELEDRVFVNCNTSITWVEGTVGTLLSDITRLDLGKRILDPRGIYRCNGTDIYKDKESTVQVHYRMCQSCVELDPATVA
Experimental: In this example, the binding properties of the parental antibody Cross3 and the CD3 affinity-reduced antibody (the production method and the amino acid sequences of the heavy and light chains were shown in Example 1) were detected by ELISA. The CD3E&D protein was coated onto a 96-well plate by the inventors, and the strength of the signal after the addition of the antibody was used to determine the binding properties of the antibody and CD3E&D.
CD3E&D protein (purchased from Acro) was diluted to 2 μg/ml with PBS buffer, added to a 96-well plate at a volume of 100 μL/well, and placed at 4° C. overnight. The PBS buffer in the 96-well plate was aspirated, and the plate was washed 6 times with PBST (pH 7.2 PBS containing 0.1% Tween 20) buffer. Then, 200 μL/well PBS/10% BSA was added and incubated at 37° C. for 2 h for blocking. The blocking solution was removed, and the plate was washed six times with PBST. Then, the to-be-tested antibodies serially diluted with PBST/0.05% BSA, Cross3, Cross303, Cross307, Cross308, Cross309, Cross310, Cross311, Cross312, Cross313, Cross314, Cross316, Cross317, Cross318, Cross323, Cross325, Cross326, and control IgG1 (purchased from Bio-Tech) were added at 100 μL/well, and incubated at 37° C. for 1 h. The reaction system was removed, and the plate was washed 6 times with PBST. Then, the cells were incubated at 37° C. for 1 h with HRP (horseradish peroxidase)-labeled anti-human secondary antibody (Fab specific) (purchased from Sigma) serially diluted with PBST/0.05% BSA at 100 μL/well. The plate was washed six times with PBST, TMB (tetramethylbenzidine) was added at 80 μL/well and incubated at room temperature for 3 min. 4 M sulfuric acid was added at 80 μL/well to terminate the reaction. The absorbance was read at 450 nm using a microplate reader.

CD3E&D protein [2] = target: T2, CD3E&D protein; experiment: SPR (Biacore 8K), antibody on CM5 chip, CD3 E&D antigen as analyte; parameters: Fold change: reference not given here
Experimental: In a Biacore 8K (Cytiva) system, the antibody was diluted to 10 μg/mL in HBS-EP running buffer and coupled to a CM5 chip (Cytiva) at a flow rate of 10 μL/min.

T1 sequence (P07766 23-207 limits assumed): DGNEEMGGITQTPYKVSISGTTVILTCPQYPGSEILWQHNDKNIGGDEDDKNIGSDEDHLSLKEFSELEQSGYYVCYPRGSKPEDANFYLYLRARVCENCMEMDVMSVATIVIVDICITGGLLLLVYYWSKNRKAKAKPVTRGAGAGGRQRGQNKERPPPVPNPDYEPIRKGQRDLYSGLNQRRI

B1: Cross325 (antibody, human IgG1, kappa, V domains shown)
VH: EVQLLESGGGLVQPGGSLKLSCAASGFTFNTYAMNWVRQAPGKGLEWVARIRSKYNNYATYYADSVKDRFTISRDDSKNTAYLQMNNLKTEDTAVYYCVRHGNFGNSYVSWFAYWGQGTLVTVSS
VL: ELVVTQEPSLTVSPGGTVTLTCRSSTGAVTTSNYANWVQQKPGQAPRGLIGGTNKRAPGTPARFSGSLLGGKAALTLSGVQPEDEAEYYCALWYSNDWVFGGGTKLTVLR
B1 was tested, and the “EC50 (read off the curve)” value (CD3 on CD8 T cells) was about 0.3 µg/mL, the “EC50 (read off the curve)” value (CD3E&D protein [1]) was about 0.03 µg/mL and the Fold change (CD3E&D protein [2]) was 15.6. The Kd (CD3E&D protein [2]) was 2.57 nM, the koff (CD3E&D protein [2]) was 0.00366 s⁻¹ and the kon (CD3E&D protein [2]) was 1.42e+06 M⁻¹ s⁻¹.
